Laboratory results from paper PMC11294453, “Cryo-EM structure of a conjugative type IV secretion system suggests a molecular switch regulating pilus biogenesis” (The EMBO Journal, 2024).

B1: TrwK/VirB4 (enzyme)
chain: MGAIESRKLLASETPVGQFIPYSHHVTDTIISTKNAEYLSVWKIDGRSHQSASEADVFQWIRELNNTLRGISSANLSLWTHIVRRRVYEYPDAEFDNVFCRQLDEKYRESFTGYNLMVNDLYLTVVYRPVSDKVLSFFAKRERETPDQKKHRQESCIKALEDINRTLGQSFKRYGAELLSVYEKGGHAFSAPLEFLARLVNGEHIPMPICRDRFSDYMAVNRPMFSKWGEVGELRSLTGLRRFGMLEIREYDDATEPGQLNVLLESDYEFVLTHSFSVLSRPAAKEYLQRHQKNLIDARDVATDQIEEIDEALNQLISGHFVMGEHHCTLTVYGETVQQVRDNLAHASAAMLDVAVLPKPVDLALEAGYWAQLPANWQWRPRPAPITSLNFLSFSPFHNFMSGKPTGNPWGPAVTILKTVSGTPLYFNFHASKEEEDATDKRLLGNTMLIGQSSSGKTVLLGFLLAQAQKFKPTIVAFDKDRGMEISIRAMGGRYLPLKTGEPSGFNPFQLPPTHANLIFLKQFVKKLAAAGGEVTHRDEEEIDQAITAMMSDSIDKSLRRLSLLLQFLPNPRSDDMDARPTVHARLVKWCEGGDYGWLFDNPTDALDLSTHQIYGFDITEFLDNPEARTPVMMYLLYRTESMIDGRRFMYVFDEFWKPLQDEYFEDLAKNKQKTIRKQNGIFVFATQEPSDALESNIAKTLIQQCATYIFLANPKADYEDYTQGFKLTDSEFELVRGLGEFSRRFLIKQGDQSALAEMNLGKFRTIVDGETVERDFDDELLVLSGTPDNAEIAESIIAEVGDDPAVWLPIFLDRVKAERSDV
notes: TrwK, the VirB4 ATPase of the type IV secretion system encoded by the conjugative plasmid R388; also called TrwK/VirB4_(central); TrwK/VirB4_(outside); source: R388 T4SS complexes expressed and purified from membranes as described previously (Mace et al, 2022)
B2: TrwM/VirB3 (natural protein)
chain: MKPPQQQHEAFPLFKGATRLPTILGEPMIPLMAMVMGVAVIALTVSIWWWALVPPLWFIMAQITKNDDKAFRIWWLWIDTKFRNRNKGFWGASSYSPANYRKRR
notes: TrwM, the VirB3 homologue of the type IV secretion system encoded by the conjugative plasmid R388; source: R388 T4SS complexes expressed and purified from membranes as described previously (Mace et al, 2022)
B3: TrwI/VirB6 (natural protein)
chain: MAFELFTPLFNKIDQTTATYVTDISSRAIAAITPVVSVGLTLGFITYGWLIIRGAVEMPVAEFLNRCLRIGIIVSIALAGGLYQGEIANAITTVPDELASALLGNPTEGASAAALVDQSAQQGFDRASEAFEEAGFFSSDGLLYGLFGIIIPAGYGPAGAIGGAFLLLAKIALALLAGLGPLFILALIWQPTHRFFDQWAQQVLNYGLLIVLFAAVFGLLMQIFGSYMADLRFDGAQNVAYAIGGSVILSIVSIVLLMQLPSIASGLAGGIGLGYMWELRSMRSGAGAAMRGGRAMARGARAAPGAARGAAVGAANMAKTVATGGAGVARAAAGYFRGRKAG
notes: TrwI, the VirB6 homologue of the type IV secretion system encoded by the conjugative plasmid R388; TM region (α1 and α2) is residues 30-82; also called TrwI/VirB6TM; VirB6_(α1α2TM); source: R388 T4SS complexes expressed and purified from membranes as described previously (Mace et al, 2022)
B4: TrwH/VirB7 (natural protein, UniProt O50334 17-47, looked up)
chain: CASAPKPKQPSDFNREPVNKTVPVEIQRGAL
notes: TrwH, the VirB7 homologue of the type IV secretion system encoded by the conjugative plasmid R388; source: R388 T4SS complexes expressed and purified from membranes as described previously (Mace et al, 2022)
B5: TrwG/VirB8 (natural protein)
chain: MSKKQPKPVKAEQLKSYYEESRGLERDLIGEFVKSRKTAWRVATASGLFGLLGMVCGIVGFSQPAPAPLVLRVDNATGAVDVVTTLREHESSYGEVVDTYWLNQYVLNREAYDYNTIQMNYDTTALLSAPAVQQDYYKLFDGSNARDRVLGNKARITVRVRSIQPNGRGQATVRFTTQQHNSNGTVERPQHQIATIGYTYIGAPMRSSDRLLNPLGFQVTSYRADPEILNN
notes: TrwG, the VirB8 homologue of the type IV secretion system encoded by the conjugative plasmid R388; also called TrwG/VirB8_(peri); TrwG/VirB8_(tail); source: R388 T4SS complexes expressed and purified from membranes as described previously (Mace et al, 2022)
B6: TrwJ/VirB5 (natural protein, UniProt O50331 23-226, looked up)
chain: QGIPVFDGTRALDFVQQFARMKEQLDTAKDQLAEAQRMYEAVTGGRGLGDLMRNAQLREYLPDDLRTVYDSANGGGYSGISGSINDILRDERLNGSVADMRRSIEERSRTARTTDKAVGCGPTKGHSNASRRLKDEISRTQDQKAIEELQARIAGEQAAIQNETTKLQMIAQLRQAEQALISEQRRERNMPILSSGNQGMPTIQ
notes: TrwJ, the VirB5 homologue of the type IV secretion system encoded by the conjugative plasmid R388; residues Gln23-Ala33 newly built; source: R388 T4SS complexes expressed and purified from membranes as described previously (Mace et al, 2022)
B7: TrwE/VirB10 (natural protein)
chain: MFGRKKGDVIDAGAELERAEQERIEGEYGASELASERRPHTPGARTLLMVLLCVIAVVLVTLSYKAYKVRGVVEDDDAQPQQVVRQVIPGYTPRPIRPEPENVPEPPQPTTSVPAIQPAPVTQPVRPQPTGPREKTPYELARERMLRSGLTAGSGGGEDLPRPQGGDVPAGGLMGGGGGGGELAEKLQPMRLSGSSAGRLGNRDMLITQGTQLDCVLETRLVTTQPGMTTCHLTRDVYSTSGRVVLLDRGSKVVGFYQGGLRQGQARIFVQWSRIETPSGVVINLDSPGTGPLGEAGLGGWIDRHFWERFGGAIMISLIGDLGDWASRQGSRQGNNSIQFSNTANGVESAAAEALRNSINIPPTLYKNQGERVNILVARDLDFSDVYSLESIPTK
notes: TrwE, the VirB10 homologue of the type IV secretion system encoded by the conjugative plasmid R388; residues 21-69, 83-101, 135-153 and 177-395 are described in the structures; the first 20 residues are invisible; also called TrwE/VirB10NTD; VirB10NT; source: R388 T4SS complexes expressed and purified from membranes as described previously (Mace et al, 2022)
B8: TrwF/VirB9 (natural protein)
chain: LDVPSSSRYDHRIRYVTYNPADVVQVDTVLGVATHIMLEEGEQYLTHAFGIPKPMPLPGRAGIFLSSRTAELANTNLIVVTDRRSYKFRLQMRNDRNGAMYELAFRYPDTQARQTREANARAAVEAAFEQRVGAYYNLKYMMSGDKDIAPVNAWDDGRFTYFKFSANADLPSIYFVDAEGNESLVPRTTVGSSNNIIAVHKVNPKWMIRLGNRALAIFNEAYDPNGVPNDTGTASPAVRRVNKGGN
notes: TrwF, the VirB9 homologue of the type IV secretion system encoded by the conjugative plasmid R388; NTD in the I-layer, CTD in the O-layer, linker helix residues 128 to 150; also called TrwF/VirB9NTD; VirB9CTD; source: R388 T4SS complexes expressed and purified from membranes as described previously (Mace et al, 2022)

Legend:
[1] = molecular target: the molecule itself; assay: cryo-EM structure; R388 T4SS complex purified from membranes; extended IMC protomer map without symmetry, 3.83 Å, with the Stalk-Arches-IMC map at 4.33 Å
TrwE/VirB10 [2] = molecular target: B7; assay: as above; settings: both partners purified
TrwK/VirB4 = molecular target: B1; assay: as above; settings: both partners purified
TrwE/VirB10 [3] = molecular target: B7; assay: cryo-EM structure; R388 T4SS complex purified from membranes; OMCC maps: O-layer with C14 symmetry (2.46 Å), I-layer with C16 symmetry (2.69 Å), OMCC conformations A, B and C without symmetry; settings: both partners purified
TrwF/VirB9 = molecular target: B8; assay: as above; settings: both partners purified
TrwE/VirB10 [4] = molecular target: B7; assay: cryo-EM structure; R388 T4SS complex purified from membranes; Arches map without symmetry, 6.22 Å; secondary structures only, no side chains; settings: both partners purified
[5] = molecular target: the molecule itself; assay: as above
TrwI/VirB6 = molecular target: B3; assay: cryo-EM structure; R388 T4SS complex purified from membranes; Stalk map with C5 symmetry applied, 2.97 Å; settings: both partners purified
[6] = molecular target: the molecule itself; assay: cryo-EM structure; R388 T4SS complex purified from membranes; OMCC maps: O-layer with C14 symmetry (2.46 Å), I-layer with C16 symmetry (2.69 Å), OMCC conformations A, B and C without symmetry

## B1
[1]
  binding result: binds

## B2
TrwE/VirB10 [2]
  binding result: binds
TrwK/VirB4
  binding result: binds

## B3
TrwE/VirB10 [2]
  binding result: binds

## B4
TrwE/VirB10 [3]
  binding result: binds
TrwF/VirB9
  binding result: binds

## B5
TrwK/VirB4
  binding result: binds
TrwE/VirB10 [4]
  binding result: binds
[5]
  stoichiometry N: 24 subunits

## B6
TrwI/VirB6
  binding result: binds

## B7
TrwK/VirB4
  binding result: binds
[6]
  binding result: binds

## B8
TrwE/VirB10 [3]
  binding result: binds
